The target of the experiment is calcitonin receptor (bovine (endogenous in bovine articular cartilage explants)).

This passage reports share of CTR-positive cells (immunohistochemistry) in the deep layer of T3-induced explants after four days of co-stimulation with 1 nM and 10 nM sCT results from article PMC3386925.

Take salmon calcitonin (peptide): the share of CTR-positive cells (immunohistochemistry) in the deep layer of T3-induced explants after four days of co-stimulation with 1 nM and 10 nM sCT was under 43%.
